# Reference: patent US20180170997A1 (NATIONAL CANCER CENTER, published 2018)
# T1: activation-inducible tumor necrosis factor receptor (AITR) on human T cells (human, UniProt Q9Y5U5 26-241)
# T1 construct: whole, on cells; also called GITR; TNFRSF18
# T1 sequence (looked up): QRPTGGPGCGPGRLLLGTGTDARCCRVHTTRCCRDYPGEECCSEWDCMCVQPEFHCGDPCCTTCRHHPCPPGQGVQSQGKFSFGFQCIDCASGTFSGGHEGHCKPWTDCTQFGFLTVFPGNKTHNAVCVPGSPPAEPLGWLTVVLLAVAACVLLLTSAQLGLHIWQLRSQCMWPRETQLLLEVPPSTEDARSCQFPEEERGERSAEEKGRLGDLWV
# T2: AITR on AITR-overexpressed Jurkat cells (CD5L-AITR-TM-ECD) (human, UniProt Q9Y5U5 26-183, limits assumed)
# T2 construct: domain: transmembrane domain (TM)-ECD; also called pcDNA3.1(+)/CD5L-AITR-TM-ECD
# T2 sequence (looked up): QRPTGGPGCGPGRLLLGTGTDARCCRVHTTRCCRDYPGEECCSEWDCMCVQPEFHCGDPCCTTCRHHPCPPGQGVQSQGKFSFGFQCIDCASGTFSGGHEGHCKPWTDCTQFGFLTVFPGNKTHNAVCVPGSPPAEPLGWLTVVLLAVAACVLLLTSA
# B1: anti-AITR mAb B32 (antibody, V domains shown)
# VH: EVQLLESGGGLIQPGGSLRLSCAASGFTFSTYGMSWVRQAPGKGLEWVSGITGSAGGGSTNYADSVKGRFTISRDNSKNTLYLQMNSLRAEDTAVYYCAKGYSSNWRSAFDIWGQGTMVTVSS
# VL: SYELMQPPSVSVSPGQTAGITCSGDALPKQYAYWYQQRPGQAPVLLIYKDTERPSGIPERFSGSSSGTTVTLTISGVQAEDEADYYCQSADSSGTYPVFGGGTKLTVL
# notes: also called clone B32
# Columns and labels:
# [1] = target: T1, activation-inducible tumor necrosis …; assay: flow cytometry on stimulated PBMC subsets
# [2] = target: T2, AITR on AITR-overexpressed Jurkat cells …; assay: flow cytometry on AITR-overexpressed Jurkat cells
# Experimental: In the flow cytometry experiment, the present inventors used fluorochrome-conjugated antibodies against CD4, CDS, CD11c, IFN-γ, Foxp3, CTLA-4, CD62L, CD45RO, CD45RA (BD Bioscience), CD19, CD56, CD14, CD127, IL-4, IL-17A, GATA-3, T-bet, RORγt (ebioscience, San Diego, Calif.), and BDCA-2 (Miltenyi Biotec). […] Intracellular level of cytokines was measured after 5 hour-long pre-incubation with 50 ng/ml phorbol 12-myristate 13-acetate (PMA), 10 μg/ml ionomycin, and 10 μg/ml Brefeldin A (Sigma-Aldrich, St Louis. Mo.). FACSCalibur flow cytometer (BD Bioscience) was used for all of the flow cytometry analysis and WinMDI software (Ver. 2.9, Scripps. Institute) was used for data analysis.
# For generating AITR-overexpressing cells, the gene fragment encoding AITR-transmembrane domain (TM)-ECD was inserted in-frame with CD5L sequence in a mammalian vector pcDNA3.1(⁺), i.e. pcDNA3.1(⁺)/CD5L-AITR-TM-ECD. Then pcDNA3.1(⁺)/Empty vector or pcDNA3.1(⁺)/CD5L-AITR-TM-ECD vector was transient transfected into Jurkat cells by electroporation. AITR expression on cell surface was detected by staining with biotin-conjugated anti-AITR mAb.
binder,measurement,setting,value
B1,binding result,[1],binds
same,binding result,[2],binds
